Measured values taken from publication doi:10.1101/2025.04.28.650977.

Tests used:
Assay in all cases: SPR
[1] = biological target: recombinant SOCS1 in complex with Elongins BC (UniProt O15524)
[2] = biological target: recombinant SOCS2 in complex with Elongins BC (UniProt O14508)
[3] = biological target: recombinant CIS in complex with Elongins BC (GST removed) (human) (UniProt Q9NSE2)

- IC50 [1]: 50 nM
- IC50 [2]: 1660 nM
- IC50 [3]: 200 nM
Substance: ARAP2-pY415 peptide (competitor phosphopeptide)
